Reference: patent US11191823 (CHILDREN S MEDICAL CENTER, dated 2021)
“And” between values parts separate entries of the source, which are not always exact repeats. Equal values may be shown once.

B1: CR1-07 IgG (antibody, V domains shown)
VH: QVQLVESGGGVVHPGRSLRLSCAASGFTFGTSIMHWVRQAPGKGMQWVAQISHDESRKFYSDSVKGRFTVSRDNSKNTLFLEMSSLRIEDTAVYYCAKDLSPPYSYAWDIFQYWGQGSLVTVS
VL: DIVMTQSPESLAVSLGERATINCKSSQSVLYSSRSDNKDYLAWYQQKPGQSPKLLIYWASTRESGVPERFTGSGSGTDFTLSISSLQAEDVAVYYCQQYYSSPPTFGGGTKVELK
B2: CR1-07 Fab (Fab, V domains shown)
VH: B1 VH
VL: B1 VL
B3: GD01 IgG (antibody, V domains shown)
VH: EVKLQQSGAELARPGTSVKLSCKASGYTFTNYWMQWIKQRPGQGLEWIGAVYPGDGDTRFSQKFKGKATLTADKSSSTAYMQLSSLSSEDSAVYFCARRRVYYGSNYIYALDYWGQGTSVTVSA
VL: DIVMTQSQKFMSTSIGDRVSITCKASQNVGSAVAWYQQKPGQSPKLLIYSASNRYTGVPDRFIGSESGTDFTLTISNMQSEDLADYFCQQYSSYPLAFGAGTKLELK
B4: CR1-28 IgG (antibody, V domains shown)
VH: QVQLVESGGGVVQPGRSLRLSCAASGFTFSSSAMHWVRQAPGKGLEWVAVIWSDGSNENYADSVKGRFTISRDNSKNTLYLQMSSLRAEDTAVYYCATDKTYVSGYTSTWYYFNYWGQGTLVTVS
VL: DIQMTQSPSTLSASVGDRVTITCRASQSIDNWLAWYQQKPGKAPKLLIYTASRLESGVPSRFSGSGSGTEFTLTISSLQPDDFATYYCQHRTFGQGTKVEIK
B5: CR1-28 Fab (Fab, V domains shown)
VH: B4 VH
VL: B4 VL

What was measured:
[1] = biological target: T1, JUNV GP1 (residues 87-235), biotinylated (Junin virus (JUNV), UniProt P26313 87-235); assay: ELISA, plates coated with biotinylated antigen, IgG titrated
[2] = biological target: T1, JUNV GP1 (residues 87-235), biotinylated; assay: SPR, Fab over immobilized JUNV GP1
[3] = biological target: T1, JUNV GP1 (residues 87-235), biotinylated; assay: ELISA, plates coated with antigen, IgG titrated
[4] = biological target: T1, JUNV GP1 (residues 87-235), biotinylated

Row | Binder | EC50 (read off the curve) [1] [µg/mL] | Kd [2] [nM] | also measured
1 | B1 | ~0.2 |  | 
2 | B2 |  | 86.2 | 
3 | B3 |  |  | EC50 (read off the curve) [3]: ~0.1 µg/mL; IC50 (read off the curve) [4]: ~8 µg/mL and ~7 µg/mL and ~10 µg/mL
4 | B4 | ~0.1 |  | 
5 | B5 |  | 5.3 | 
